Measurements: the supplement of paper PMC9112550, “Optimization of the antimicrobial peptide Bac7 by deep mutational scanning” (BMC Biology, 2022)

Test system: Escherichia coli TOP10
Assay: shrunken log2 fold change of peptide-encoding DNA abundance (4.5 h post-induction vs induction); higher = less antimicrobial activity (less host growth inhibition)
Conditions: time post-induction: 4.5 h; library: site-saturation at positions 5, 18, 19, 20
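Also: peptides expressed intracellularly from a pBAD plasmid library in pooled LB shake-flask culture, induced with 0.3% L-arabinose, DNA abundance read by NGS, three biological replicates, DESeq2 with apeglm shrinkage.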

| Sequence | shrunken log2 fold change |
| --- | --- |
| RRIRHRPPRLPRPRPRPIGPPRP | -0.00697 |
| RRIRLRPPRLPRPRPRPIMNPRP | -0.381 |
| RRIRDRPPRLPRPRPRPIGIPRP | 0.00854 |
| RRIRCRPPRLPRPRPRPYAVPRP | -0.349 |
| RRIRLRPPRLPRPRPRPIKMPRP | -0.347 |
| RRIRVRPPRLPRPRPRPINNPRP | -0.684 |
| RRIRDRPPRLPRPRPRPGQNPRP | -0.0354 |
| RRIRNRPPRLPRPRPRPWRSPRP | 0.111 |
| RRIRARPPRLPRPRPRPCMGPRP | 0.00996 |
| RRIRNRPPRLPRPRPRPTWHPRP | 0.0157 |
| RRIRPRPPRLPRPRPRPLYAPRP | 0.0267 |
| RRIRVRPPRLPRPRPRPLVPPRP | -0.0493 |
| RRIRFRPPRLPRPRPRPEAAPRP | 0.965 |
| RRIRTRPPRLPRPRPRPVPSPRP | 0.0454 |
| RRIRWRPPRLPRPRPRPIKPPRP | -0.0158 |
| RRIRCRPPRLPRPRPRPQENPRP | -0.0731 |
| RRIRQRPPRLPRPRPRPFQLPRP | -0.00805 |
| RRIRIRPPRLPRPRPRPFYDPRP | -0.202 |
| RRIRYRPPRLPRPRPRPHFFPRP | -0.518 |
| RRIRYRPPRLPRPRPRPPPKPRP | 1.24 |
| RRIRWRPPRLPRPRPRPKHEPRP | 0.288 |
| RRIRCRPPRLPRPRPRPVLQPRP | 1.24 |
| RRIRKRPPRLPRPRPRPEEKPRP | 0.0431 |
| RRIRDRPPRLPRPRPRPYVYPRP | -0.0147 |
| RRIRMRPPRLPRPRPRPRWAPRP | 1.3 |

| Sequence | shrunken log2 fold change |
| --- | --- |
| RRIRNRPPRLPRPRPRPSDCPRP | -0.483 |
| RRIRCRPPRLPRPRPRPVPWPRP | -0.139 |
| RRIRYRPPRLPRPRPRPKNNPRP | -1.02 |
| RRIRVRPPRLPRPRPRPGMEPRP | 0.232 |
| RRIRIRPPRLPRPRPRPHNLPRP | -0.334 |
| RRIRFRPPRLPRPRPRPINLPRP | -0.291 |
| RRIRCRPPRLPRPRPRPDGQPRP | 0.101 |
| RRIRTRPPRLPRPRPRPGYVPRP | -0.526 |
| RRIRKRPPRLPRPRPRPLPSPRP | 0.0447 |
| RRIRSRPPRLPRPRPRPNYHPRP | -0.742 |
| RRIRARPPRLPRPRPRPRYRPRP | 0.165 |
| RRIRMRPPRLPRPRPRPRKPPRP | 0.915 |
| RRIRYRPPRLPRPRPRPFEIPRP | -0.17 |
| RRIRMRPPRLPRPRPRPSRHPRP | 0.228 |
| RRIRPRPPRLPRPRPRPKKKPRP | -0.192 |
| RRIRWRPPRLPRPRPRPWPHPRP | 0.204 |
| RRIRPRPPRLPRPRPRPHFSPRP | -0.108 |
| RRIRYRPPRLPRPRPRPIGWPRP | 0.11 |
| RRIRDRPPRLPRPRPRPPSNPRP | 0.137 |
| RRIRDRPPRLPRPRPRPCARPRP | 0.219 |
| RRIRLRPPRLPRPRPRPAPEPRP | 0.109 |
| RRIRYRPPRLPRPRPRPNQQPRP | -0.0105 |
| RRIRYRPPRLPRPRPRPHIFPRP | -0.255 |
| RRIRGRPPRLPRPRPRPCSDPRP | 0.0118 |
| RRIRQRPPRLPRPRPRPDNPPRP | -0.0388 |
